Measurements reported in patent US20230129095A1, “PEPTIDE INHIBITORS OF INTERLEUKIN-23 RECEPTOR AND THEIR USE TO TREAT INFLAMMATORY DISEASES” (Protagonist Therapeutics, Inc., priority 2020, published 2023).
Bridges are numbered along the chain shown (N, C = ends). [ ]: non-standard residue; d: D form. Trp(7-Ph) = N[C@@H](Cc1c[nH]c2c(-c3ccccc3)cccc12)C(=O)O; 2Nal = N[C@@H](Cc1ccc2ccccc2c1)C(=O)O; AEF = NCCOc1ccc(C[C@H](N)C(=O)O)cc1; αMeK = C[C@](N)(CCCCN)C(=O)O; Abu = CC[C@H](N)C(=O)O

T1: interleukin-23 receptor (IL-23R), human (human, UniProt Q5VWK5 24-629)
T1 sequence (looked up): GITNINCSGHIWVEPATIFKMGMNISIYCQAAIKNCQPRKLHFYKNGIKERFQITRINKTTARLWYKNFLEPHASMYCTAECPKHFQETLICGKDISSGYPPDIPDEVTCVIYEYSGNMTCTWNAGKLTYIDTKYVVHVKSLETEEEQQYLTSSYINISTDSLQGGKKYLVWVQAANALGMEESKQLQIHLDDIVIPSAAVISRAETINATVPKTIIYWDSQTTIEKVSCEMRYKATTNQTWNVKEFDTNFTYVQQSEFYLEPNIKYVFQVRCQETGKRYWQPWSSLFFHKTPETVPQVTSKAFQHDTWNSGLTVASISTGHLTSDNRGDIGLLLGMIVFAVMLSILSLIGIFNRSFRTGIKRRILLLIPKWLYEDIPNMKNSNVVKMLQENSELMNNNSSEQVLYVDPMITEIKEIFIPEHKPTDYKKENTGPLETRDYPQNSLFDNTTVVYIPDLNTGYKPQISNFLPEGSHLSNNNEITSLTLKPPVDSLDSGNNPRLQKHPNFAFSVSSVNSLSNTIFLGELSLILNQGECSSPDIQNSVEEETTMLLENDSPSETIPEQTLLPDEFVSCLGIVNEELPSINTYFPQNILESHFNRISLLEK

B1: Peptide No. 1 (SEQ ID No. 1) (peptide)
peptide: XNTXKXXXXKNL
modifications: Ac-[Pen]-N-T-[W(7-Ph)]-[Lys(Ac)]-[Pen]-Phe[4-(2-aminoethoxy)]-[2-Nal]-[a-MeLys]-[Lys(Ac)]-N-[(D)Leu]-NH2; N-terminal acetyl, C-terminal amide; cyclized via Pen-Pen disulfide bond
B2: Peptide No. 13 (SEQ ID No. 13) (peptide)
peptide: XNTXKXXXXENK
modifications: Ac-[Pen]-N-T-[W(7-Ph)]-[Lys(Ac)]-[Pen]-Phe[4-(2-aminoethoxy)]-[3Quin]-[THP]-E-N-[(D)Lys]-NH2; N-terminal acetyl, C-terminal amide; cyclized via Pen-Pen disulfide bond
B3: Peptide No. 14 (SEQ ID No. 14) (peptide)
peptide: XNTXKXXXXKNK
modifications: Ac-[Pen]-N-T-[W(7-Ph)]-[Lys(Ac)]-[Pen]-Phe[4-(2-aminoethoxy)]-[3Quin]-[a-MeLys]-[Lys(Ac)]-N-[(D)Lys]-NH2; N-terminal acetyl, C-terminal amide; cyclized via Pen-Pen disulfide bond
B4: Peptide No. 15 (SEQ ID No. 15) (peptide)
peptide: XNTXKXXXXENL
modifications: Ac-[Pen]-N-T-[W(7-Ph)]-[Lys(Ac)]-[Pen]-Phe[4-(2-aminoethoxy)]-[3Quin]-[THP]-E-N-[(D)Leu]-NH2; N-terminal acetyl, C-terminal amide; cyclized via Pen-Pen disulfide bond
B5: Peptide No. 16 (SEQ ID No. 16) (peptide)
peptide: XNTXKXXXXKNL
modifications: Ac-[Pen]-N-T-[W(7-Ph)]-[Lys(Ac)]-[Pen]-Phe[4-(2-aminoethoxy)]-[3Quin]-[a-MeLys]-[Lys(Ac)]-N-[(D)Leu]-NH2; N-terminal acetyl, C-terminal amide; cyclized via Pen-Pen disulfide bond

Each binder was assayed against T1, interleukin-23 receptor (IL-23R), human (assay: cell-based or functional assay).

Binder	pStat3 HTRF IC50 (DB cells IL23R pSTAT3 cell assay, 0.5 nM IL-23) [nM]
B1	0.518
B2	0.386
B3	0.437
B4	0.186
B5	0.365
Ac-[Abu]QT[Trp(7-Ph)]K(Ac)C[AEF][2Nal][αMeK]K(Ac)N[dL]-NH2 (thioether 1-6) [Peptide No. 18 (SEQ ID No. 18)]	0.993

Molecular target: T1, interleukin-23 receptor (IL-23R), human
Test: cell-based or functional assay
Remark: another data set of the same source

Binder	NK Cell Assay IC50 (IFNgamma secretion by human NK cells stimulated with IL-23 and IL-18) [nM]
B1	4.3
B2	1.55
B3	2.41
B4	2.44
B5	2.9
Ac-[Abu]QT[Trp(7-Ph)]K(Ac)C[AEF][2Nal][αMeK]K(Ac)N[dL]-NH2 (thioether 1-6) [Peptide No. 18 (SEQ ID No. 18)]	6.28
